Measured values published in US20190353654A1.

How the values were obtained:
[1] = target: CCL5 26-91 (UniProt P13501); assay: MicroScale Thermophoresis, earlier independent purification from SF9 cells
[2] = target: CCL5 26-91 (UniProt P13501); assay: MicroScale Thermophoresis, labeled receptor, ligand titrated, in 50% human serum
[3] = target: CCL5 26-91 (UniProt P13501); assay: MicroScale Thermophoresis, labeled receptor, ligand titrated, in buffer (1x PBS, 5 mM DTT)
[4] = target: CXCL12 24-88 (UniProt P48061); assay: MicroScale Thermophoresis, labeled receptor, ligand titrated, in 50% human serum
[5] = target: CXCL12 24-88 (UniProt P48061); assay: MicroScale Thermophoresis, labeled receptor, ligand titrated, in buffer (1x PBS, 5 mM DTT)
[6] = target: CXCL12 24-88 (UniProt P48061); assay: MicroScale Thermophoresis, later independent purification and refolding from E. coli inclusion bodies
[7] = target: CXCL12 24-88 (UniProt P48061); assay: MicroScale Thermophoresis, earlier independent purification and refolding from E. coli inclusion bodies

Chain of CCL5 26-91 (P13501 26-91 limits assumed, form in doubt): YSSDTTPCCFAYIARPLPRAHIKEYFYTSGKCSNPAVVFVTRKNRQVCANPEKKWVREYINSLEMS
Chain of CXCL12 24-88 (P48061 24-88 limits assumed, form in doubt): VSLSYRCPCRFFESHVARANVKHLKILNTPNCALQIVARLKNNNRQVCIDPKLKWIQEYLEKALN

| Kd [1] [nM] | Kd [2] [nM] | Kd [3] [nM] | Kd [4] [nM] | Kd [5] [nM] | Kd [6] [nM] | Kd [7] [nM] | Binder |
| --- | --- | --- | --- | --- | --- | --- | --- |
| 42 | 45.9 | 33.9 |  |  |  |  | CCR5^QTY (receptor, not shown: small tags and cut ends, Receptor labelled with NT647 dye (RED-NHS, on amines) for MST; sites not specified) MDYQVSSPIYDINYYTSEPCQKINVKQIAARQQPPQYSQTFTYGFTGNMQTTQTQINCKRLKSMTDIYLQNQAISDQYYQQTTPYWAHYAAAQWDFGNTMCQQQTGQYFTGYYSGTYYTTQQTTDRYLAVVHAVFALKARTTTYGTTTSTTTWTTATYASQPGTTYTRSQKEGLHYTCSSHFPYSQYQFWKNFQTLKITIQGQVQPQQTMVTCYSGTQKTLLRCRNEKKRHRAVRQTFTTMTTYYQYWAPYNTTQQLNTFQEFFGLNNCSSSNRLDQAMQVTETQGMTHCCTNPTIYAYVGEKFRNYLLVFFQKHIAKRFCKCCSIFQQEAPERASSVYTRSTGEQEISVGL |
|  |  |  | 44.7 | 11.2 | 13 | 17 | CXCR4^QTY (receptor, not shown: small tags and cut ends, Receptor labelled with NT647 dye (RED-NHS, on amines) for MST; sites not specified) MEGISIYTSDNYTEEMGSGDYDSMKEPCFREENANFNKTYQPTTYSTTYQTGTTGQGQTTQTMGYQKKQRSMTDKYRQHQSTADQQYTTTQPYWATDATANWYFGNFQCKATHTTYTTQQYSSTQTQAYTSQDRYLAIVHATNSQRPRKQQAEKTTYTGTWTPAQQQTTPDYTYANVSEADDRYICDRFYPNDLWTTTYQYQHTMTGQTQPGTTTQSCYCTTTSKLSHSKGHQKRKALKTTTTQTQAYYACWQPYYTGTSTDSFILLEIIKQGCEFENTVHKWTSTTEAQAYYHCCQQPTQYAYQGAKYKTSAQHAQTSTSRGSSQKTQSKGKRGGHSSTSTESESSSFHSS |
|  |  |  | 6.6 | 2.2 |  |  | CXCR7^QTY (receptor, not shown: small tags and cut ends, The receptor was labelled with NT647 (RED-NHS dye on lysines, positions not defined) for MST. The letters do not carry this.) MDLHLFDYSEPGNFSDISWPCNSSDCIVVDTVMCPNMPNKSTQQYTQSYTYTYTYTTGMTANSVVVWVNIQAKTTGYDTHCYTQNQATADQWTTQTTPTWTTSLVQHNQWPMGELTCKTTHQTYSTNQYGSTYYQTCMSVDRYLSITYFTNTPSSRKKMVRRTTCTQTWQQAYCTSQPDTYYQKTVTSASNNETYCRSFYPEHSIKEWLIGMEQTSTTQGYATPYSTTATYYYQLARAISASSDQEKHSSRKTTYSYTTTYQTCWQPYHTATQLDIFSILHYIPFTCRLEHALFTAQHTTQCQSQTHCCTNPTQYSYTNRNYRYELMKAFIFKYSAKTGLTKLIDASRVSETEYSALEQSTK |
